From patent US6960454B2, “Methods for making and using a thermophilic enzyme as a β-glycosidase” (Director-General of Agency of Industrial Science and …, priority 1998, dated 2005)
Read-outs that look alike come from different tables or passages of the source.

How the values were obtained:
[1] = target: T1, Sβ-gly from S. solfataricus strain MT-4 (Saccharolobus solfataricus, UniProt P22498); conditions: cited from earlier work; for Km / kcat: Sβ-gly, 75° C. and pH 6.5; for efficiency of hydrolysis by Sβ-gly: in words
T1 sequence (P22498 whole entry N62M/R140P/N205M/N208M/A235H/V319M/K445F/G469C): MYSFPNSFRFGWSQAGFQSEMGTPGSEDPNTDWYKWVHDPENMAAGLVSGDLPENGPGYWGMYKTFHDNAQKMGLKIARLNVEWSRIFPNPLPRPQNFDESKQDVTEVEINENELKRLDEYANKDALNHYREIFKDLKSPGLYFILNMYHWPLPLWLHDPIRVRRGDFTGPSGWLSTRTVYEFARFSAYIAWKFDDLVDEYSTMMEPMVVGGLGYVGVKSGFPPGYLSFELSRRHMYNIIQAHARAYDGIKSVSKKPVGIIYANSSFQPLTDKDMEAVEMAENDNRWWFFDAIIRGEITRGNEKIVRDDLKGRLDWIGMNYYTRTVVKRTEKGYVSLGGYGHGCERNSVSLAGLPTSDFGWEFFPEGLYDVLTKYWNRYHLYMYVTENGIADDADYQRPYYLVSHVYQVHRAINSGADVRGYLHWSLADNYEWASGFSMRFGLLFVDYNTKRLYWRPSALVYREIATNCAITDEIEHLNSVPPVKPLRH

[2] = target: his-tagged BGPh from P. horikoshii (His-BGPh) (Pyrococcus horikoshii, UniProt O58104); format: biochemical; conditions: for kcat: His-BGPh, 90° C. and pH 6.0; for efficiency of hydrolysis by His-BGPh: in words
Method: (§1) The enzyme reactions were carried out at 90° C. in a solution […] containing the substrate and the purified His-BGPh in 50 mM phosphate buffer (pH 6) with 0.1% Triton X-100 and 0.3 M NaCl. For the hydrolysis of p-nitrophenyl (p-Nph) β-D-saccharides, the reaction was terminated by the addition of 1 M Na2CO3 (1 ml), then centrifuged at 15,000×g for 10 min. The concentration of the p-Nph group in the supernatant was quantified by measuring the absorbance at 400 nm. For the hydrolysis of β-D-glucoside, the released glucose was analyzed with a Glucose C-II Test kit (Wako Pure Chemicals, Japan). Initial velocities were obtained directly from the initial slopes of the time course plots. The Km and kcat values were calculated using the Michaelis-Menten equation and the least squares method (12). The subsite affinity for a long alkyl chain was determined using the method reported previously (13-15) on the basis of the subsite theory (16).

[3] = target: T1, Sβ-gly from S. solfataricus strain MT-4; assay: Kinetic parameters of substrate hydrolysis by Sβ-gly (from references 7, 21); format: biochemical, Sulfolobus solfataricus
[4] = substrate: CCCCCCCCCO[C@@H]1O[C@H](CO)[C@@H](O)[C@H](O)[C@H]1O; assay: purified protein, by the assay type; format: biochemical; conditions: other: His-BGPh, 90° C. and pH 6.0
Method: (§2) The enzyme reactions were carried out at 90° C. in a solution (200 ml) containing the substrate and the purified His-BGPh in 50 mM phosphate buffer (pH 6) with 0.1% Triton X-100 and 0.3 M NaCl. For the hydrolysis of p-nitrophenyl (p-Nph) β-D-saccharides, the reaction was terminated by the addition of 1 M Na2CO3 (1 ml), then centrifuged at 15,000×g for 10 min. The concentration of the p-Nph group in the supernatant was quantified by measuring the absorbance at 400 nm. For the hydrolysis of β-D-glucoside, the released glucose was analyzed with a Glucose C-II Test kit (Wako Pure Chemicals, Japan). Initial velocities were obtained directly from the initial slopes of the time course plots. The Km and kcat values were calculated using the Michaelis-Menten equation and the least squares method (12). The subsite affinity for a long alkyl chain was determined using the method reported previously (13-15) on the basis of the subsite theory (16).

[5] = substrate: O=[N+]([O-])c1ccc(O[C@@H]2O[C@H](CO)[C@@H](O)[C@H](O)[C@H]2O)cc1; assay: purified protein, by the assay type; format: biochemical; conditions: other: His-BGPh, 90° C. and pH 6.0
Method: as §2

[6] = substrate: CCCCCO[C@@H]1O[C@H](CO)[C@@H](O)[C@H](O)[C@H]1O; assay: purified protein, by the assay type; format: biochemical; conditions: other: His-BGPh, 90° C. and pH 6.0
Method: as §2

[7] = substrate: CCCCCCO[C@@H]1O[C@H](CO)[C@@H](O)[C@H](O)[C@H]1O; assay: purified protein, by the assay type; format: biochemical; conditions: other: His-BGPh, 90° C. and pH 6.0
Method: as §2

[8] = substrate: CCCCCCCCCCCO[C@@H]1O[C@H](CO)[C@@H](O)[C@H](O)[C@H]1O; assay: purified protein, by the assay type; format: biochemical; conditions: other: His-BGPh, 90° C. and pH 6.0
Method: as §2

[9] = substrate: CCCCCCCCCCO[C@@H]1O[C@H](CO)[C@@H](O)[C@H](O)[C@H]1O; assay: purified protein, by the assay type; format: biochemical; conditions: other: His-BGPh, 90° C. and pH 6.0
Method: as §2

[10] = substrate: O=[N+]([O-])c1ccc(O[C@@H]2O[C@H](CO)[C@@H](O)[C@H](O)[C@@H]2O)cc1; assay: purified protein, by the assay type; format: biochemical; conditions: other: His-BGPh, 90° C. and pH 6.0
Method: as §2

[11] = substrate: CCCCCCCCCCCCO[C@@H]1O[C@H](CO)[C@@H](O)[C@H](O)[C@H]1O; assay: purified protein, by the assay type; format: biochemical; conditions: other: His-BGPh, 90° C. and pH 6.0
Method: as §2

[12] = substrate: CCCCCCCCO[C@@H]1O[C@H](CO)[C@@H](O)[C@H](O)[C@H]1O; assay: purified protein, by the assay type; format: biochemical; conditions: other: His-BGPh, 90° C. and pH 6.0
Method: as §2

[13] = substrate: O=[N+]([O-])c1ccc(O[C@@H]2O[C@H](CO)[C@H](O)[C@H](O)[C@H]2O)cc1; assay: purified protein, by the assay type; format: biochemical; conditions: other: His-BGPh, 90° C. and pH 6.0
Method: as §2

[14] = substrate: CO[C@@H]1O[C@H](CO)[C@@H](O)[C@H](O)[C@H]1O; assay: purified protein, by the assay type; format: biochemical; conditions: other: His-BGPh, 90° C. and pH 6.0
Method: as §2

[15] = substrate: O=[N+]([O-])c1ccc(O[C@@H]2OC[C@@H](O)[C@H](O)[C@H]2O)cc1; assay: purified protein, by the assay type; format: biochemical; conditions: other: His-BGPh, 90° C. and pH 6.0
Method: as §2

Optimum pH = format: biochemical; conditions: p-Nph-β-D-Glcp, 90° C.
Method: The pH of the reaction mixtures ranged from 3.9 to 5.5 in sodium acetate buffer and from 5.5 to 7.99 in phosphate buffer. Optical density measurements at A405 were performed as described for the enzyme assays.

Optimum temperature = format: biochemical; conditions: p-Nph-β-D-Glcp; listed as purified enzyme
Method: The enzyme reactions were carried out in duplicate at temperatures ranging from 50° C. to 100° C. for 30 min. Optical density measurements at A405 were performed as described for the enzyme assays.

[16] = substrate: OCc1ccccc1O[C@@H]1O[C@H](CO)[C@@H](O)[C@H](O)[C@H]1O; assay: purified protein, by the assay type; conditions: other: His-BGPh, 90° C. and pH 6.0
[17] = Subsite affinity of BGPh for a long alkyl chain; format: biochemical; conditions: from kcat/Km of n-Dodecyl- vs Methyl-β-D-Glcp
Method: as §1

[18] = Heat treatment of the purified enzyme at 95° C.; format: physicochemical; conditions: 50 mM phosphate buffer (pH 6.0), 250 mM NaCl, 95° C. for 1 hour
Method: When the enzyme is treated in 50 mM phosphate buffer (pH 6.0) containing 250 mM NaCl at 95° C. for 1 hour, its activity is retained at the level of 80% based on the initial level. The enzyme has an optimum pH of pH 6.0 and an optimum temperature of 100° C. or higher in terms of the enzymatic activity.

For `O=[N+]([O-])c1ccc(O[C@@H]2OC[C@@H](O)[C@H](O)[C@H]2O)cc1` [p-Nph-β-D-Xylp], the Km [1] is given as 4000 µM and the kcat [1] is given as 284 s⁻¹.

In the case of `OC[C@H]1O[C@@H](O[C@H]2[C@H](O)[C@@H](CO)OC(O)[C@@H]2O)[C@H](O)[C@@H](O)[C@@H]1O` (some centres unmarked) [Laminaribiose], the kcat [2] is given as 184 s⁻¹, the Km [1] is given as 1000 µM and the kcat [1] is given as 908 s⁻¹.

In the case of `CCCCCCO[C@@H]1O[C@H](CO)[C@@H](O)[C@H](O)[C@H]1O` [n-Hexyl-β-D-Glcp], the Km [1] is given as 1000 µM and the kcat [1] is given as 263 s⁻¹.

In the case of `O=[N+]([O-])c1ccc(O[C@@H]2O[C@H](CO)[C@@H](O)[C@H](O)[C@H]2O)cc1` [p-Nph-β-D-Glcp, p-nitrophenyl β-D-glucopyranoside], the Km [1] is listed as 500 µM and the kcat [1] is listed as 542 s⁻¹.

In the case of `CCCCCO[C@@H]1O[C@H](CO)[C@@H](O)[C@H](O)[C@H]1O` [n-Amyl-β-D-Glcp], the Km [1] is listed as 1100 µM and the kcat [1] is listed as 256 s⁻¹.

For Cellobiose, the kcat [2] is listed as 194 s⁻¹, the Km [1] is listed as 30000 µM and the kcat [1] is listed as 1333 s⁻¹.

For `OC[C@H]1O[C@@H](OC[C@H]2O[C@@H](O)[C@H](O)[C@@H](O)[C@@H]2O)[C@H](O)[C@@H](O)[C@@H]1O` [β-Gentiobiose], the kcat [1] is listed as 1360 s⁻¹ and the Km ([1]; read-out: Km) is listed as 100000 µM.

For `CCCCCCCCO[C@@H]1O[C@H](CO)[C@@H](O)[C@H](O)[C@H]1O` [n-Octyl-β-D-Glcp], the “kcat/Km relative to that for laminaribiose” value [3] is listed as 0.48 fold, the “kcat/Km relative to that for p-Nph-β-D-Glcp” value [3] is listed as 0.4 fold and the Km [1] is listed as 700 µM. The kcat [1] was 313 s⁻¹.

In the case of `OC[C@H]1O[C@@H](O[C@H]2[C@H](O)[C@@H](O)[C@H](O[C@H]3[C@H](O)[C@@H](O)[C@H](O[C@H]4[C@H](O)[C@@H](O)C(O)O[C@@H]4CO)O[C@@H]3CO)O[C@@H]2CO)[C@H](O)[C@@H](O)[C@@H]1O` (some centres unmarked) [Cellotetraose], the “efficiency of hydrolysis by His-BGPh” value [2] is listed as “low efficiency”, the kcat [1] is listed as 584 s⁻¹ and the Km ([1]; read-out: Km) is listed as 1700 µM. For the same molecule, the “efficiency of hydrolysis by Sβ-gly” value [1] was “high efficiency”.

In the case of `OC[C@H]1O[C@@H](O[C@H]2[C@H](O)[C@@H](O)[C@H](O[C@H]3[C@H](O)[C@@H](O)C(O)O[C@@H]3CO)O[C@@H]2CO)[C@H](O)[C@@H](O)[C@@H]1O` (some centres unmarked) [Cellotriose], the “efficiency of hydrolysis by His-BGPh” value [2] is given as “low efficiency”, the kcat [1] is given as 197 s⁻¹ and the Km ([1]; read-out: Km) is given as 3000 µM. For the same molecule, the “efficiency of hydrolysis by Sβ-gly” value [1] was “high efficiency”.

For `O=[N+]([O-])c1ccc(O[C@@H]2O[C@H](CO)[C@H](O)[C@H](O)[C@H]2O)cc1` [p-Nph-β-D-Galp], the Km [1] is given as 4700 µM and the kcat [1] is given as 1020 s⁻¹.

For `OCc1ccccc1O[C@@H]1O[C@H](CO)[C@@H](O)[C@H](O)[C@H]1O` [Salicin], the Km [1] is listed as 5000 µM and the kcat [1] is listed as 880 s⁻¹.

B1: his-tagged BGPh from P. horikoshii (His-BGPh) (Pyrococcus horikoshii OT3) (protein)
chain: MPLKFPEMFLFGTATSSHQIEGNNRWNDWWYYEQIGKLPYRSGKACNHWELYRDDIQLMTSLGYNAYRFSIEWSRLFPEENKFNEDAFMKYREIIDLLLTRGITPLVTLHHFTSPLWFMKKGGFLREENLKHWEKYIEKVAELLEKVKLVATFNEPMVYVMMGYLTAYWPPFIRSPFKAFKVAANLLKAHAIAYELLHGKFKVGIVKNIPIILPASDKERDRKAAEKADNLFNWHFLDAIWSGKYRGVFKTYRIPQSDADFIGVNYYTASEVRHTWNPLKFFFEVKLADISERKTQMGWSVYPKGIYMALKKASRYGRPLYITENGIATLDDEWRVEFIIQHLQYVHKAIEDGLDVRGYFYWSFMDNYEWKEGFGPRFGLVEVDYQTFERRPRKSAYVYGEIARSKEIKDELLKRYGLPELQL
Molecule B1 has a Km [4] of 80 µM, a kcat [4] of 39 s⁻¹ and a kcat/Km [4] of 471570 M⁻¹ s⁻¹. The Km [5] was 350 µM, the kcat [5] was 79 s⁻¹ and the kcat/Km [5] was 225670 M⁻¹ s⁻¹. It also gave a Km [6] of 2020 µM, a kcat [6] of 31 s⁻¹ and a kcat/Km [6] of 15110 M⁻¹ s⁻¹. For the same molecule, the Km [7] was 540 µM, the kcat [7] was 33 s⁻¹ and the kcat/Km [7] was 60280 M⁻¹ s⁻¹. For the same molecule, the Km [8] was 50 µM, the kcat [8] was 43 s⁻¹ and the kcat/Km [8] was 944370 M⁻¹ s⁻¹. The Km [9] was 80 µM, the kcat [9] was 37 s⁻¹ and the kcat/Km [9] was 469620 M⁻¹ s⁻¹. It also gave a kcat [10] of 2 s⁻¹, a kcat/Km [10] of 14600 M⁻¹ s⁻¹ and a Km [11] of 30 µM. The kcat [11] was 36 s⁻¹, the kcat/Km [11] was 1.1529e+06 M⁻¹ s⁻¹ and the Km [12] was 200 µM. For the same molecule, the kcat [12] was 34 s⁻¹, the kcat/Km [12] was 170700 M⁻¹ s⁻¹ and the Km [13] was 1300 µM. The kcat [13] was 123 s⁻¹, the kcat/Km [13] was 94340 M⁻¹ s⁻¹ and the Km [14] was 40740 µM. For the same molecule, the kcat [14] was 35 s⁻¹, the kcat/Km [14] was 850 M⁻¹ s⁻¹ and the Km [15] was 100 µM. For the same molecule, the kcat [15] was 3 s⁻¹, the kcat/Km [15] was 31830 M⁻¹ s⁻¹ and the “optimum pH” value (Optimum pH) was 6.0. For the same molecule, the optimum temperature (Optimum temperature) was ≥ 100 °C, the Km [16] was 1960 µM and the kcat [16] was 44 s⁻¹. For the same molecule, the kcat/Km [16] was 22200 M⁻¹ s⁻¹, the “subsite affinity A(C11) to bind a long alkyl chain (C11)” value [17] was 4.26 kcal/mol and the “activity retained based on the initial level” value [18] was 80%.
